Target: high affinity IL-2 receptor (IL-2R) consisting of CD122, CD132 and CD25, on CTLL-2 cells (mouse) (UniProt P01590)
Assay: cell-based or functional assay

Sequence of high affinity IL-2 receptor (IL-2R) consisting of CD122, CD132 and CD25, on CTLL-2 cells (mouse) (P01590 22-268, chain 1 of 3): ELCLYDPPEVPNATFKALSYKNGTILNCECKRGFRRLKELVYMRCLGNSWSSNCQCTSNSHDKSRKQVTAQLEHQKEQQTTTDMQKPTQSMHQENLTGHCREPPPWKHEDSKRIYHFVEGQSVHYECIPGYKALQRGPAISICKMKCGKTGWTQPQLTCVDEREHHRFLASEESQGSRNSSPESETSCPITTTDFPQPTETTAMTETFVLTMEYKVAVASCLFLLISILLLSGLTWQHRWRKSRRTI
Sequence of high affinity IL-2 receptor (IL-2R) consisting of CD122, CD132 and CD25, on CTLL-2 cells (mouse) (P16297 27-539, chain 2 of 3, further chain): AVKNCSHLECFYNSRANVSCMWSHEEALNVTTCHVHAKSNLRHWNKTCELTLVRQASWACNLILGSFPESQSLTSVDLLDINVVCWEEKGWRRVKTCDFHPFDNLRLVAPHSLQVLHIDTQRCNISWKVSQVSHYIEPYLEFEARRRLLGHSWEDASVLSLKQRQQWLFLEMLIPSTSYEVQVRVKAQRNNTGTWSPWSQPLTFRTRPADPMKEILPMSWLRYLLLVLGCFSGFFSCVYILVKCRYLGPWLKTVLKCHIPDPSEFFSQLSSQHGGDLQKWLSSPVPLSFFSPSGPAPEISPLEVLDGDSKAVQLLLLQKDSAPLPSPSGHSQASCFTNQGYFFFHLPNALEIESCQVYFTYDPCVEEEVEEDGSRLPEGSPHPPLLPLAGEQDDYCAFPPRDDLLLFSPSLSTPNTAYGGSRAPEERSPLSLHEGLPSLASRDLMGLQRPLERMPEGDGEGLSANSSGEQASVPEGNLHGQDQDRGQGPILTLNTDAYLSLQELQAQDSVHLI
Sequence of high affinity IL-2 receptor (IL-2R) consisting of CD122, CD132 and CD25, on CTLL-2 cells (mouse) (P34902 23-369, chain 3 of 3, further chain): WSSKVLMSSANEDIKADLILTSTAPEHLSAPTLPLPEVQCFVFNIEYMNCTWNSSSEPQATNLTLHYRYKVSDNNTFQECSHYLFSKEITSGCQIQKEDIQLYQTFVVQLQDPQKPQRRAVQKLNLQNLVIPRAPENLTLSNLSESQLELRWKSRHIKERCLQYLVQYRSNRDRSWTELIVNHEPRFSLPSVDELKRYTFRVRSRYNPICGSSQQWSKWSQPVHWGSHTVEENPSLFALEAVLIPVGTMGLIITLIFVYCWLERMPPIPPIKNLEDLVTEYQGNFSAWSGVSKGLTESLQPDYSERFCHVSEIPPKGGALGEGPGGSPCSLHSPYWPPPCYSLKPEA

CTLL-2 cell proliferation, EC50: 6.4 pM
Substance: rhIL-2 (from UniProt P60568 21-153) (ligand)

From patent US20230365642A1
